Assays:
[1] = molecular target: Luc-tagged rat AT1a receptor DRY/AAY, full length (rat) (UniProt P25095); assay: FRET or BRET; BRET2 in live HEK293 cells co-transfected with Luc-tagged rAT1aR and GFP2-β-arrestin2; dose-response to Ang II, read 15 min after agonist addition
[2] = molecular target: Luc-tagged rat AT1a receptor DRY/AAY truncated after serine 331 (DRY/AAY 331Δ) (rat) (UniProt P25095); assay: as above
[3] = molecular target: Luc-tagged rat AT1a receptor DRY/AAY, full length (rat) (UniProt P25095); assay: FRET or BRET; BRET2 in live HEK293 cells co-transfected with Luc-tagged rAT1aR and GFP2-β-arrestin2; dose-response to SII Ang II, read 15 min after agonist addition
[4] = molecular target: Luc-tagged rat AT1a receptor DRY/AAY truncated after serine 331 (DRY/AAY 331Δ) (rat) (UniProt P25095); assay: as above
[5] = molecular target: FLAG-tagged rat AT1a receptor DRY/AAY, full length (rat) (UniProt P25095); assay: radioligand binding; whole-cell heterologous competition on transfected COS-7 cells: 1 nM 3H-Ang II tracer and increasing unlabeled SII Ang II, 3 h at 4°C; pKi calculated from Ang II KD values of experiments run in parallel
[6] = molecular target: FLAG-tagged rat AT1a receptor DRY/AAY truncated after serine 331 (DRY/AAY 331Δ) (rat) (UniProt P25095); assay: as above
[7] = molecular target: T1, FLAG-tagged rat AT1a receptor WT truncated after serine 331 (WT 331Δ) (rat, UniProt P25095 1-331); assay: as above; conditions: one partner purified
T1 construct: source: COS-7, transiently transfected, on whole cells; not shown: FLAG, N-terminal, kept
T1 sequence (looked up): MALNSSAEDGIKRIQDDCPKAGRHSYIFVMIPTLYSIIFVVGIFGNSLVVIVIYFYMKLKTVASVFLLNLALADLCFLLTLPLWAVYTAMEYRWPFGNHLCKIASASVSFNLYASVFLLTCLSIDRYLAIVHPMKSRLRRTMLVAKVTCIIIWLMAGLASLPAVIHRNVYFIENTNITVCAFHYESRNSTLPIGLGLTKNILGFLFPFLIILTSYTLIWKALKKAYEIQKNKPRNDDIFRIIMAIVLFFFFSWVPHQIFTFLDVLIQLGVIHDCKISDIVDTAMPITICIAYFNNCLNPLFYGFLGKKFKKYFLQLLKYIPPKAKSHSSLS

[8] = molecular target: T2, FLAG-tagged rat AT1a receptor (rAT1aR), WT, full length (rat, UniProt P25095 1-359); assay: as above; conditions: one partner purified
T2 construct: Angiotensin II type 1a receptor (AT1aR), rat, full length; also called AT1R; Angiotensin II type 1 receptor; source: COS-7, transiently transfected, on whole cells; not shown: FLAG, N-terminal, kept
T2 sequence (looked up): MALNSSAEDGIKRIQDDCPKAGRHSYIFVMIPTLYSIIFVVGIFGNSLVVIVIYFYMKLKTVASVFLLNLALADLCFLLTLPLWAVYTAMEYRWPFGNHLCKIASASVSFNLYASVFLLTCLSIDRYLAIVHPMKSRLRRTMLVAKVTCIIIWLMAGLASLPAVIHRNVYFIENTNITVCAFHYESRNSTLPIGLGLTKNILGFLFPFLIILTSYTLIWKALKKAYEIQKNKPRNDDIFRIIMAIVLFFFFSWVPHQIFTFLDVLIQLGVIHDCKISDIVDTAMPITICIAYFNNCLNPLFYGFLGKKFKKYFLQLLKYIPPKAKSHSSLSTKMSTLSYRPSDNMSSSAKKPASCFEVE

## GFP2-tagged β-arrestin2 (from UniProt P32121 1-409) (natural protein)
[1]
  pEC50 of Ang II for induced recruitment (BRET2): 8.2
[2]
  pEC50 of Ang II for induced recruitment (BRET2): 8.2
[3]
  pEC50 of SII Ang II for induced recruitment (BRET2): 7.5
[4]
  pEC50 of SII Ang II for induced recruitment (BRET2, from normalized curves): 7

## Sar1-Ile4-Ile8 (SII) Ang II (peptide)
[5]
  pKi: 6.1
[6]
  pKi: 6.2

## GRVIIHPI (sarcosine at position 1 (Sar1)) [Sar1-Ile4-Ile8 (SII) Ang II]
[7]
  pKi: 6
[8]
  pKi: 5.9

From PMC2994726 (PLoS ONE, 2010)
